The text below walks through data of publication PMC8080067, “Tight binding of cytochrome b5 to cytochrome P450 17A1 is a critical feature of stimulation of C21 steroid lyase activity and androgen synthesis” (The Journal of Biological Chemistry, 2021).

Data set [1] deals with P450cam (Pseudomonas putida) (UniProt P00183). Nature of the data set: fluorescence titration. The following applies: cited from earlier work.
A further data set deals with cytochrome c (UniProt P99999). Briefly: fluorescence titration. The following applies: cited from earlier work.
cytochrome c, sequence (P99999 2-105): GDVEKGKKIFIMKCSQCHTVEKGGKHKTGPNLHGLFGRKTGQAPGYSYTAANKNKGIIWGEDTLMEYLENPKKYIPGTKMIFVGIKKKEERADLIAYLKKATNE
The next data set concerns the target metmyoglobin (UniProt P02144). Nature of the data set: fluorescence titration. The following applies: cited from earlier work.
The next data set addresses T1, P450 17A1 (Homo sapiens, UniProt P05093).
T1 construct: made in house; host or cells: Escherichia coli (P450 17A1 in JM109)
Briefly: Inhibition of reconstituted P450 17A1 steroid oxidation reactions by peptides. Type of data set: biochemical. From the text: The “b5 peptide” corresponds to residues 43 to 52 of b5, and the “17A1 peptide” corresponds to residues 347 to 358 of P450 17A1 (see Experimental procedures section and Fig. S7).

Data set [2] concerns the target T2, Alexa 488-T70C-b5:P450 17A1 complex (Homo sapiens, UniProt P00167+P05093, T70C).
T2 construct: made in house; host or cells: Escherichia coli (P450 17A1 in JM109; T70C-b5 plasmid in DH5α)
Briefly: Peptide addition to Alexa 488-T70C-b5:P450 17A1 complex (gain of fluorescence). Type of data set: binding. The following applies: even at a concentration of 160 μM; data not presented. From the text:
Peptides were obtained corresponding to the putative binding sites of P450 17A1 and b5 (see Experimental procedures section and Fig. S7).

For data set [3], the target named is T3, WT P450 17A1 (human, UniProt P05093 1-508).
T3 construct: cytochrome P450 17A1, human; approximate Mr 57 kDa; also called cytochrome P450 17A1; CYP17A1; source: E. coli JM109 (pCW vector), purified (Ni2+-NTA)
T3 sequence (looked up): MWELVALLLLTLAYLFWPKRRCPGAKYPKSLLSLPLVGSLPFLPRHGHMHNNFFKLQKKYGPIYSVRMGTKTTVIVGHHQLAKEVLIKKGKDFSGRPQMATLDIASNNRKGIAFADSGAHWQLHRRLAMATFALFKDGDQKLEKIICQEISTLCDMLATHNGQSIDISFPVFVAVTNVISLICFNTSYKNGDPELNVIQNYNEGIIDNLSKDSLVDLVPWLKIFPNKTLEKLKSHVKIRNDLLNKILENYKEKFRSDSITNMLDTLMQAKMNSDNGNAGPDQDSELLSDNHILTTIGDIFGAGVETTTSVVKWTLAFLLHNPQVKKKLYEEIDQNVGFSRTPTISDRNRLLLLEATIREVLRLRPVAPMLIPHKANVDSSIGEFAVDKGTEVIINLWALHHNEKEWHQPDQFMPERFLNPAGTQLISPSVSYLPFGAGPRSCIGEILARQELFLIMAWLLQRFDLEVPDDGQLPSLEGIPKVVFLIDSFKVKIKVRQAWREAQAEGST
Nature of the data set: other fluorescence titration; as a1, with pregnenolone present at 10 μM. The following applies: both partners purified.

The target of data set [4] is T3, WT P450 17A1. Nature of the data set: other fluorescence titration; as a1, with progesterone present at 10 μM. The following applies: both partners purified.
The target of data set [5] is T3, WT P450 17A1. Nature of the data set: other fluorescence titration; as a1, with 17-OH pregnenolone present at 10 μM. The following applies: both partners purified.
In data set [6] the target is T3, WT P450 17A1. Nature of the data set: other fluorescence titration; as a1, with 17-OH progesterone present at 10 μM. The following applies: both partners purified.
The target of data set [7] is T3, WT P450 17A1. Nature of the data set: stopped-flow fluorescence; dissociation: preformed Alexa 488-T70C-b5:P450 17A1 complex mixed with 30 μM unlabeled b5; excitation 488 nm, emission >530 nm, single exponential. The following applies: both partners purified.
Data set [8] addresses T3, WT P450 17A1. Nature of the data set: other fluorescence titration; 50 nM Alexa 488-T70C-b5 in 100 mM potassium phosphate pH 7.4 titrated with P450 17A1 (WT or variant); excitation 480 nm, emission 513 nm; quadratic fit; no substrate; no phospholipid vesicles; apparent Kd. The following applies: both partners purified.
Substrate in data set [9]: CC(=O)C1CCC2C3CC=C4C[C@@H](O)CC[C@]4(C)C3CC[C@]12C
Nature of the data set: purified protein, by the assay type. The following applies: other: 17α-hydroxylation, pH 7.4, 30.0 °C.

Substrate in data set [10]: CC(=O)[C@@]1(O)CCC2C3CC=C4C[C@@H](O)CC[C@]4(C)C3CC[C@@]21C
Briefly: purified protein, by the assay type. The following applies: other: lyase reaction (conversion to androstenedione or DHEA), pH 7.4, 30.0 °C.

Substrate in data set [11]: CC(=O)[C@H]1CC[C@H]2[C@@H]3CCC4=CC(=O)CC[C@]4(C)[C@H]3CC[C@]12C
Nature of the data set: purified protein, by the assay type. The following applies: other: 17α-hydroxylation, pH 7.4, 30.0 °C.

Data set [12] has as its target T4, WT P450 17A1 (Homo sapiens, UniProt P05093).
T4 sequence (P05093 1-508): T3 sequence (looked up)
Type of data set: biochemical. Also on record: made in house; host or cells: Escherichia coli (P450 17A1 in JM109). Here is the method: Figure S4. Stimulation of lyase activities by b5, T70C- b5, and NanoTemper Blue-T70C-b5. Catalytic assays for the lyase reactions were performed and analyzed as described in the main text.

Substitutions are numbered along the chain they refer to. In names and notes the source's numbering stands. Entries after “also recorded” stand apart in the source; their conditions may differ. Ends that are not written are not given here.

T1 sequence (P00167 whole entry partner, one chain of several): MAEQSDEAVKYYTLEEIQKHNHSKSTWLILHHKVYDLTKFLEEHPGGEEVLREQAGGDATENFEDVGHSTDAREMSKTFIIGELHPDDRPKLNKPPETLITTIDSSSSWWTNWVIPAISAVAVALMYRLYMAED
T2 sequence (P00167 whole entry T70C, one chain of several): as the sequence (P00167 whole entry partner, one chain of several) above, with T70C counted along it
P450cam (Pseudomonas putida), sequence (P00183 2-415): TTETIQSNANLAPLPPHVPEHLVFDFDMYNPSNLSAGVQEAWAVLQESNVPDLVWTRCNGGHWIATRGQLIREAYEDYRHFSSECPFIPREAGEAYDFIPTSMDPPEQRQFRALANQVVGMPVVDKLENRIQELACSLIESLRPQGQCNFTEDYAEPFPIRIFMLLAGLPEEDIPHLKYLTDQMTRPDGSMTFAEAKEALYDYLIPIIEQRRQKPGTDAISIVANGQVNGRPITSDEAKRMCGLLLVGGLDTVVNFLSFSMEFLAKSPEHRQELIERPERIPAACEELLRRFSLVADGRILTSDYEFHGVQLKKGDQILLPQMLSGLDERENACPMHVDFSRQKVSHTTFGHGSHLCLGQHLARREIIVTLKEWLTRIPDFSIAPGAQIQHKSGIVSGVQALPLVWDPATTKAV
metmyoglobin, sequence (P02144 2-154): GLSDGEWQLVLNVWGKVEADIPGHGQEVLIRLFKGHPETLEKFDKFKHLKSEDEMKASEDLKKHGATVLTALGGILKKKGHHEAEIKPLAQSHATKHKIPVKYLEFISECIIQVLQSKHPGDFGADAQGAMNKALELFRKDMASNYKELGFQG

With “cytochrome b5 (T65C labeled) (from UniProt P00173)”, the Kd (in data set [1]; with cytochrome c; in the data set with metmyoglobin) was 1000 nM throughout.
With “RNRLLLLEATIR [P450 peptide, R N R L L L L E A T I R]”, the “inhibition of progesterone 17α-hydroxylation” value against P450 17A1 was “only at the very highest concentration”. In addition, the “inhibition of lyase reaction (17α-OH pregnenolone)” value against P450 17A1 (b5 present at 10-fold higher concentration than P450, listed as P450 17A1 peptide) was “more inhibitory to the lyase reaction (17α-OH pregnenolone) than the b5 peptide; also recorded: weak inhibition”.
“EHPGGEEVLRE [b5 peptide, E H P G G E E V L R E]”: the “gain of fluorescence of Alexa 488-T70C-b5:P450 17A1 complex” value in data set [2] is reported as “did not result in a gain of fluorescence”.

B1: Alexa 488-T70C-b5 (natural protein, human)
chain: MAEQSDEAVKYYTLEEIQKHNHSKSTWLILHHKVYDLTKFLEEHPGGEEVLREQAGGDATENFEDVGHSCDAREMSKTFIIGELHPDDRPKLNKPPETLITTIDSSSS
modifications: Alexa Fluor 488 maleimide conjugated to the cysteine of T70C; extent of modification 74%
notes: cytochrome b5 (CYB5A, b5), human, T70C; printed theoretical mass 16.9 kDa; Heme protein; also called labeled b5; fluorescently labeled variant of human b5
One may read the koff as a measure of how fast the partners let go of each other. A higher koff goes with a short-lived complex. As to B1, the Kd with WT P450 17A1 [3] came to 12 ± 5 nM; with WT P450 17A1 [4], 5.8 ± 2.3 nM; with WT P450 17A1 [5] it was 2.2 ± 1 nM; in the data set with WT P450 17A1 [6] it was 6 ± 1 nM; in the data set with WT P450 17A1 [8] it was 2.5 ± 0.6 nM. In addition, in the data set with WT P450 17A1 [7], the koff was found to be 1.9 ± 0.2 s⁻¹.

B2: WT P450 17A1 (Homo sapiens) (protein)
chain: T3 sequence (looked up)
What is called Km is the substrate concentration at which the rate is half of its maximum. As usually defined, the kcat is the number of substrate molecules converted per active site and unit of time at saturation. By kcat/Km is commonly meant the turnover number divided by the Michaelis constant. Regarding B2, in data set [9] (WT), the Michaelis-Menten constant (Km) came to 0.47 ± 0.20 µM, the kcat was 0.0147 ± 0.000833 s⁻¹ and the catalytic efficiency (kcat/Km) was determined as 31700 M⁻¹ s⁻¹. Further, in data set [10] (WT), the Km worked out at 6.7 ± 2.1 µM, the turnover number (kcat) is 0.0917 s⁻¹ and the kcat/Km is 13800 M⁻¹ s⁻¹. Also, in data set [11] (WT), the Km is 7.8 ± 1.4 µM, the kcat was 0.107 ± 0.00833 s⁻¹ and the specificity constant (kcat/Km) was 13700 M⁻¹ s⁻¹.

B3: P450 17A1 R358Q variant (Homo sapiens; R358Q) (protein)
chain: T3 sequence (looked up) with R358Q
Take B3: in data set [9] (R358Q), the Km stood at 2.6 ± 1.4 µM, the kcat was 0.00967 ± 0.0015 s⁻¹ and the kcat/Km was 3670 M⁻¹ s⁻¹. In addition, in data set [10] (R358Q), the Michaelis-Menten constant (Km) was 10 ± 5 µM, the kcat was determined as 0.000933 s⁻¹ and the specificity constant (kcat/Km) was determined as 83.3 M⁻¹ s⁻¹. Also, in data set [11] (R358Q), the Km was 4.6 ± 0.7 µM and the kcat was found to be 0.00717 ± 0.000333 s⁻¹.

B4: P450 17A1 E305G variant (Homo sapiens; E305G) (protein)
chain: T3 sequence (looked up) with E305G
For B4, in data set [9] (E305G), the Michaelis constant (Km) stood at 5.7 ± 4.6 µM, the catalytic constant (kcat) amounted to 0.00117 ± 0.000333 s⁻¹ and the specificity constant (kcat/Km) was determined as 167 M⁻¹ s⁻¹. Besides, in data set [10] (E305G), the Michaelis-Menten constant (Km) is 9.4 ± 3.7 µM, the kcat came out at 0.000933 s⁻¹ and the kcat/Km worked out at 100 M⁻¹ s⁻¹. Also, in data set [11] (E305G), the Km was found to be 3.1 ± 0.4 µM, the kcat came to 0.00317 ± 0.000167 s⁻¹ and the catalytic efficiency (kcat/Km) turned out to be 1000 M⁻¹ s⁻¹.

B5: P450 17A1 R347H variant (Homo sapiens; R347H) (protein)
chain: T3 sequence (looked up) with R347H
As to B5, the Km amounted to 1.5 ± 0.5 µM in data set [9] (R347H), 4.8 ± 1.7 µM in data set [10] (R347H) and 8.1 ± 2.2 µM in [11] (R347H). For the same molecule, the catalytic constant (kcat) is 0.00883 ± 0.000667 s⁻¹ in data set [9] (R347H), 0.000717 s⁻¹ in [10] (R347H) and 0.003 ± 0.000333 s⁻¹ in data set [11] (R347H). In addition, the kcat/Km in [9] (R347H) turned out to be 5830 M⁻¹ s⁻¹; in [10] (R347H), 150 M⁻¹ s⁻¹; in [11] (R347H), 333 M⁻¹ s⁻¹.

B6: Blue-T70C-b5: T70C-b5 labeled with the proprietary NanoTemper BLUE fluorescent dye (protein, UniProt P00167 2-134, looked up, variant T70C)
Cytochrome b5: AEQSDEAVKYYTLEEIQKHNHSKSTWLILHHKVYDLTKFLEEHPGGEEVLREQAGGDATENFEDVGHSCDAREMSKTFIIGELHPDDRPKLNKPPETLITTIDSSSSWWTNWVIPAISAVAVALMYRLYMAED
modifications: NanoTemper BLUE fluorescent dye label
For B6, the “stimulation of lyase activities” value with WT P450 17A1 [12] is reported as “stimulated the lyase reactions”.
